{
  "source": "IntAct's records for PubMed 34606829",
  "parents": {"B1": {"name": "ALK tyrosine kinase receptor (Homo sapiens), Q9UM73 (parent)", "chain": "MGAIGLLWLLPLLLSTAAVGSGMGTGQRAGSPAAGPPLQPREPLSYSRLQRKSLAVDFVVPSLFRVYARDLLLPPSSSELKAGRPEARGSLALDCAPLLRLLGPAPGVSWTAGSPAPAEARTLSRVLKGGSVRKLRRAKQLVLELGEEAILEGCVGPPGEAAVGLLQFNLSELFSWWIRQGEGRLRIRLMPEKKASEVGREGRLSAAIRASQPRLLFQIFGTGHSSLESPTNMPSPSPDYFTWNLTWIMKDSFPFLSHRSRYGLECSFDFPCELEYSPPLHDLRNQSWSWRRIPSEEASQMDLLDGPGAERSKEMPRGSFLLLNTSADSKHTILSPWMRSSSEHCTLAVSVHRHLQPSGRYIAQLLPHNEAAREILLMPTPGKHGWTVLQGRIGRPDNPFRVALEYISSGNRSLSAVDFFALKNCSEGTSPGSKMALQSSFTCWNGTVLQLGQACDFHQDCAQGEDESQMCRKLPVGFYCNFEDGFCGWTQGTLSPHTPQWQVRTLKDARFQDHQDHALLLSTTDVPASESATVTSATFPAPIKSSPCELRMSWLIRGVLRGNVSLVLVENKTGKEQGRMVWHVAAYEGLSLWQWMVLPLLDVSDRFWLQMVAWWGQGSRAIVAFDNISISLDCYLTISGEDKILQNTAPKSRNLFERNPNKELKPGENSPRQTPIFDPTVHWLFTTCGASGPHGPTQAQCNNAYQNSNLSVEVGSEGPLKGIQIWKVPATDTYSISGYGAAGGKGGKNTMMRSHGVSVLGIFNLEKDDMLYILVGQQGEDACPSTNQLIQKVCIGENNVIEEEIRVNRSVHEWAGGGGGGGGATYVFKMKDGVPVPLIIAAGGGGRAYGAKTDTFHPERLENNSSVLGLNGNSGAAGGGGGWNDNTSLLWAGKSLQEGATGGHSCPQAMKKWGWETRGGFGGGGGGCSSGGGGGGYIGGNAASNNDPEMDGEDGVSFISPLGILYTPALKVMEGHGEVNIKHYLNCSHCEVDECHMDPESHKVICFCDHGTVLAEDGVSCIVSPTPEPHLPLSLILSVVTSALVAALVLAFSGIMIVYRRKHQELQAMQMELQSPEYKLSKLRTSTIMTDYNPNYCFAGKTSSISDLKEVPRKNITLIRGLGHGAFGEVYEGQVSGMPNDPSPLQVAVKTLPEVCSEQDELDFLMEALIISKFNHQNIVRCIGVSLQSLPRFILLELMAGGDLKSFLRETRPRPSQPSSLAMLDLLHVARDIACGCQYLEENHFIHRDIAARNCLLTCPGPGRVAKIGDFGMARDIYRASYYRKGGCAMLPVKWMPPEAFMEGIFTSKTDTWSFGVLLWEIFSLGYMPYPSKSNQEVLEFVTSGGRMDPPKNCPGPVYRIMTQCWQHQPEDRPNFAIILERIEYCTQDPDVINTALPIEYGPLVEEEEKVPVRPKDPEGVPPLLVSQQAKREEERSPAAPPPLPTTSSGKAAKKPTAAEISVRVPRGPAVEGGHVNMAFSQSNPPSELHKVHGSRNKPTSLWNPTYGSWFTEKPTKKNNPIAKKEPHDRGNLGLEGSCTVPPNVATGRLPGASLLLEPSSLTANMKEVPLFRLRHFPCGNVNYGYQQQGLPLEAATAPGAGHYEDTILKSKNSMNQPGP"}, "B2": {"name": "ALK tyrosine kinase receptor (Homo sapiens), Q9UM73 (parent)", "chain": "B1 chain", "partner": "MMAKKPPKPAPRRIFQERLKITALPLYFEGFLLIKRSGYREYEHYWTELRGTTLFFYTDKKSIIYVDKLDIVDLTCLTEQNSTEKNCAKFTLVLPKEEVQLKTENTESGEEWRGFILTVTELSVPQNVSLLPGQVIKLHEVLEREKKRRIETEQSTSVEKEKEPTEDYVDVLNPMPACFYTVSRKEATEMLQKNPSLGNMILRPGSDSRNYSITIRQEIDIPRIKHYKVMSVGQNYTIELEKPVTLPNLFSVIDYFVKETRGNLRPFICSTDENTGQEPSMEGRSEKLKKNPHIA"}, "B3": {"name": "ALK tyrosine kinase receptor (Homo sapiens), Q9UM73 (parent)", "chain": "B1 chain", "partner": "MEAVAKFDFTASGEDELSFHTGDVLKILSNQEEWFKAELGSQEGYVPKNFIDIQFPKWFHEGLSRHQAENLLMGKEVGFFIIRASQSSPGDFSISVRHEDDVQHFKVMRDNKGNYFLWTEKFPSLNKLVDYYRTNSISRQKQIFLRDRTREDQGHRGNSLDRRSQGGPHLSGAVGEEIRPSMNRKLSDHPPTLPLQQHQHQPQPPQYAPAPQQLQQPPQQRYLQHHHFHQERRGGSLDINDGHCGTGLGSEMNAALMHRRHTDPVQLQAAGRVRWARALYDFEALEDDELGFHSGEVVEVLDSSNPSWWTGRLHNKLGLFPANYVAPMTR"}, "B4": {"name": "ALK tyrosine kinase receptor (Homo sapiens), Q9UM73 (parent)", "chain": "B1 chain", "partner": "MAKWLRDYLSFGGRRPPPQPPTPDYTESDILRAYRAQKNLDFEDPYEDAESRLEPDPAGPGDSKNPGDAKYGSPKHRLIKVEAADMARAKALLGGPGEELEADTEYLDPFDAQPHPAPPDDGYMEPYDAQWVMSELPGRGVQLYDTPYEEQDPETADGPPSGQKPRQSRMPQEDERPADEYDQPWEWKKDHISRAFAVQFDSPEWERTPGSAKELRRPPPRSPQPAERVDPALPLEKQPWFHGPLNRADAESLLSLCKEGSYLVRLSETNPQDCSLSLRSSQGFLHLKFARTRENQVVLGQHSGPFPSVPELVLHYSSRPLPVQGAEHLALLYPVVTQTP"}, "B5": {"name": "ALK tyrosine kinase receptor (Homo sapiens), Q9UM73 (parent)", "chain": "B1 chain", "partner": "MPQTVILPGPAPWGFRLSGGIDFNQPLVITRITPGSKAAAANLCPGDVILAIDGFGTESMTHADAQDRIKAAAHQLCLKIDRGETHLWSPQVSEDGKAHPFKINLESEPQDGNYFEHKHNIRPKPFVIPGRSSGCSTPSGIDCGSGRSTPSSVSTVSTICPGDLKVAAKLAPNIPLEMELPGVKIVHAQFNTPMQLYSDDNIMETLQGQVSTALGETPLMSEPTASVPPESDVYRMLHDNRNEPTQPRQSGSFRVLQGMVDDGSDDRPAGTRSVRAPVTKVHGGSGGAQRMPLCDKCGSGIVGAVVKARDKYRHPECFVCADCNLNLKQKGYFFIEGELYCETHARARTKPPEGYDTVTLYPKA"}},
  "data": [
    {"variants_of": "B1", "details": "with abl1_human ABL1, P00519", "values": [
      {"variant": "I1250T", "effect of a mutation on the interaction": "decreasing interaction strength"},
      {"variant": "L1196M", "effect of a mutation on the interaction": "increasing interaction strength"}
    ]},
    {"variants_of": "B1", "details": "with frk_human FRK", "values": [
      {"variant": "I1250T", "effect of a mutation on the interaction": "decreasing interaction strength"},
      {"variant": "L1196M", "effect of a mutation on the interaction": "increasing interaction strength"}
    ]},
    {"variants_of": "B1", "details": "with sh24b_human SH2D4B", "values": [
      {"variant": "I1250T", "effect of a mutation on the interaction": "decreasing interaction strength"},
      {"variant": "L1196M", "effect of a mutation on the interaction": "increasing interaction strength"}
    ]},
    {"variants_of": "B1", "details": "with srms_human SRMS", "values": [
      {"variant": "I1250T", "effect of a mutation on the interaction": "decreasing interaction strength"},
      {"variant": "L1196M", "effect of a mutation on the interaction": "increasing interaction strength"}
    ]},
    {"variants_of": "B1", "details": "with sta5b_human STAT5B", "values": [
      {"variant": "I1250T", "effect of a mutation on the interaction": "decreasing interaction strength"},
      {"variant": "L1196M", "effect of a mutation on the interaction": "increasing interaction strength"}
    ]},
    {"variants_of": "B1", "details": "with syk_human KARS1, Q15046", "values": [
      {"variant": "I1250T", "effect of a mutation on the interaction": "decreasing interaction strength"},
      {"variant": "L1196M", "effect of a mutation on the interaction": "increasing interaction strength"}
    ]},
    {"variants_of": "B1", "details": "with crk_human CRK", "values": [
      {"variant": "I1250T", "effect of a mutation on the interaction": "decreasing interaction strength"},
      {"variant": "L1196M", "effect of a mutation on the interaction": "increasing interaction strength"}
    ]},
    {"variants_of": "B1", "details": "with fgr_human FGR", "values": [
      {"variant": "I1250T", "effect of a mutation on the interaction": "decreasing interaction strength"},
      {"variant": "L1196M", "effect of a mutation on the interaction": "increasing interaction strength"}
    ]},
    {"variants_of": "B1", "details": "with grb14_human GRB14, Q14449", "values": [
      {"variant": "I1250T", "effect of a mutation on the interaction": "decreasing interaction strength"},
      {"variant": "L1196M", "effect of a mutation on the interaction": "increasing interaction strength"}
    ]},
    {"variants_of": "B1", "details": "with hck_human HCK", "values": [
      {"variant": "I1250T", "effect of a mutation on the interaction": "decreasing interaction strength"},
      {"variant": "L1196M", "effect of a mutation on the interaction": "increasing interaction strength"}
    ]},
    {"variants_of": "B1", "details": "with lyn_human LYN", "values": [
      {"variant": "I1250T", "effect of a mutation on the interaction": "decreasing interaction strength"},
      {"variant": "L1196M", "effect of a mutation on the interaction": "increasing interaction strength"}
    ]},
    {"variants_of": "B1", "details": "with nck2_human NCK2, O43639", "values": [
      {"variant": "I1250T", "effect of a mutation on the interaction": "decreasing interaction strength"},
      {"variant": "L1196M", "effect of a mutation on the interaction": "increasing interaction strength"}
    ]},
    {"variants_of": "B1", "details": "with sh2b1_human SH2B1, Q9NRF2", "values": [
      {"variant": "I1250T", "effect of a mutation on the interaction": "decreasing interaction strength"},
      {"variant": "L1196M", "effect of a mutation on the interaction": "increasing interaction strength"}
    ]},
    {"variants_of": "B1", "details": "with shb_human SHB", "values": [
      {"variant": "I1250T", "effect of a mutation on the interaction": "decreasing interaction strength"},
      {"variant": "L1196M", "effect of a mutation on the interaction": "increasing interaction strength"}
    ]},
    {"variants_of": "B1", "details": "with socs3_human SOCS3, O14543", "values": [
      {"variant": "I1250T", "effect of a mutation on the interaction": "decreasing interaction strength"},
      {"variant": "L1196M", "effect of a mutation on the interaction": "increasing interaction strength"}
    ]},
    {"variants_of": "B1", "details": "with stat2_human STAT2, P52630", "values": [
      {"variant": "I1250T", "effect of a mutation on the interaction": "decreasing interaction strength"},
      {"variant": "L1196M", "effect of a mutation on the interaction": "increasing interaction strength"}
    ]},
    {"variants_of": "B1", "details": "with zap70_human ZAP70, P43403", "values": [
      {"variant": "I1250T", "effect of a mutation on the interaction": "decreasing interaction strength"},
      {"variant": "L1196M", "effect of a mutation on the interaction": "increasing interaction strength"}
    ]},
    {"variants_of": "B1", "details": "with rack1_human RACK1, P63244", "values": [
      {"variant": "I1250T", "effect of a mutation on the interaction": "decreasing interaction strength"},
      {"variant": "L1196M", "effect of a mutation on the interaction": "increasing interaction strength"}
    ]},
    {"variants_of": "B2", "details": "with stap1_human STAP1, Q9ULZ2", "values": [
      {"variant": "L1196M", "effect of a mutation on the interaction": "increasing interaction strength"},
      {"variant": "F1245C", "effect of a mutation on the interaction": "increasing interaction strength"},
      {"variant": "I1250T", "effect of a mutation on the interaction": "decreasing interaction strength"}
    ]},
    {"variants_of": "B3", "details": "with grap2_human GRAP2, O75791", "values": [
      {"variant": "I1250T", "effect of a mutation on the interaction": "decreasing interaction strength"},
      {"variant": "L1196M", "effect of a mutation on the interaction": "increasing interaction strength"},
      {"variant": "F1245C", "effect of a mutation on the interaction": "increasing interaction strength"}
    ]},
    {"variants_of": "B4", "details": "with shd_human SHD", "values": [
      {"variant": "L1196M", "effect of a mutation on the interaction": "increasing interaction strength"},
      {"variant": "F1245C", "effect of a mutation on the interaction": "increasing interaction strength"},
      {"variant": "I1250T", "effect of a mutation on the interaction": "decreasing interaction strength"}
    ]},
    {"variants_of": "B5", "details": "with pdli3_human PDLIM3, Q53GG5", "values": [
      {"variant": "I1250T", "effect of a mutation on the interaction": "decreasing interaction strength"},
      {"variant": "L1196M", "effect of a mutation on the interaction": "increasing interaction strength"},
      {"variant": "F1245C", "effect of a mutation on the interaction": "increasing interaction strength"}
    ]}
  ]
}
